Biological target: T1, HLA-A*0201 molecule expressed on human T2 cells (human)
T1 construct: surface HLA-A2 detected with anti-HLA-A2-PE (clone REA517); also called HLA-A2
Experiment: T2 cell HLA-A*0201 binding assay, anti-HLA-A2-PE flow cytometry
Experimental: T2 cells (5·10⁴ cells per well) are incubated with decreasing concentrations of peptides from 100 μM to 0.1 μM (4 points: 100 μM, 10 μM, 1 μM, 0.1 μM) in serum-free medium (TexMacs) supplemented with 100 ng/μl of 2 Microglobulin at 37° C. for 16 hours. Cells are then washed two times and marked with the anti-HLA-A2 antibody coupled to PE (clone REA517, Miltenyi).
For each peptide concentration, the geometric mean of the labelling associated with the peptide of interest is subtracted from background noise and reported as a percentage of the geometric mean of the HLA-A*0202 labelling obtained for the reference peptide HIV pol 589-597 at a concentration of 100 μM.

Binder	in vitro binding affinity (relative affinity, normalized against HIV-pol)	concentration of peptide that induces 20% of HLA-A2 expression [µM]	mean relative fluorescence intensity at 0.1 µM peptide	mean relative fluorescence intensity at 1 µM peptide	mean relative fluorescence intensity at 10 µM peptide	mean relative fluorescence intensity at 100 µM peptide
SLPDRILDA (also called ENT204-H) [CDC20-H1]	6.3 ratio to HIV pol reference peptide	–	–	–	–	–
SLLSIQSYV (also called ENT172_B1) [UBE2C-B2]	0.2 ratio to HIV pol reference peptide	0.22	14.2 % of HIV pol reference peptide	52 % of HIV pol reference peptide	92 % of HIV pol reference peptide	–
IVWSDVTYV (also called ENT187_B1) [MMP11-B1]	0.07 ratio to HIV pol reference peptide	0.08	19.8 % of HIV pol reference peptide	73.3 % of HIV pol reference peptide	97.1 % of HIV pol reference peptide	80.2 % of HIV pol reference peptide
RLQQELMTL [UBE2C-H3]	1.1 ratio to HIV pol reference peptide	1.06	1.3 % of HIV pol reference peptide	12.3 % of HIV pol reference peptide	71.5 % of HIV pol reference peptide	82.4 % of HIV pol reference peptide
FLYDVRTYL (also called ENT168_B1; ENT_168-B1) [UBE2C-B1]	3.1 ratio to HIV pol reference peptide	–	–	–	–	–
YLYDVRTAL (also called ENT168_B2) [UBE2C-B11]	0.7 ratio to HIV pol reference peptide	0.87	6.6 % of HIV pol reference peptide	22.2 % of HIV pol reference peptide	68.4 % of HIV pol reference peptide	87.5 % of HIV pol reference peptide
AVIGIVAAV (also called ENT190_B1) [OR51E2-B1]	0.8 ratio to HIV pol reference peptide	0.7	3.5 % of HIV pol reference peptide	25.4 % of HIV pol reference peptide	59.3 % of HIV pol reference peptide	–
VMNPELLLL (also called ENT207_B3) [KIF2C-B12]	1.1 ratio to HIV pol reference peptide	0.258	9.8 % of HIV pol reference peptide	41.4 % of HIV pol reference peptide	84.7 % of HIV pol reference peptide	67.7 % of HIV pol reference peptide
AINPELLQL (also called ENT207-H) [KIF2C-H1]	31.1 ratio to HIV pol reference peptide	22.6	0 % of HIV pol reference peptide	0.4 % of HIV pol reference peptide	9.5 % of HIV pol reference peptide	64.9 % of HIV pol reference peptide
ALIFGQLLL (also called ENT205_B1; ENT_205-B1) [TOP2A-B2]	2.9 ratio to HIV pol reference peptide	1.79	3.4 % of HIV pol reference peptide	5.5 % of HIV pol reference peptide	73.6 % of HIV pol reference peptide	146 % of HIV pol reference peptide
ALIFGQLLT (also called ENT205-H) [TOP2A-H2]	–	–	5.1 % of HIV pol reference peptide	0.3 % of HIV pol reference peptide	3.2 % of HIV pol reference peptide	0 % of HIV pol reference peptide
QMNPELLTL (also called ENT207_B2) [KIF2C-B11]	3.9 ratio to HIV pol reference peptide	–	–	–	–	–
YLQQELMNL (also called ENT178_B1) [UBE2C-B3]	–	0.14	–	–	–	–
AQIGIVAVV [OR51E2-H1]	6.2 ratio to HIV pol reference peptide	5.68	0 % of HIV pol reference peptide	4 % of HIV pol reference peptide	32 % of HIV pol reference peptide	–
YLILEYAPL [AURKA-H1]	22.8 ratio to HIV pol reference peptide	12.2	0 % of HIV pol reference peptide	0 % of HIV pol reference peptide	13.1 % of HIV pol reference peptide	164 % of HIV pol reference peptide
KVWSDVTPL [MMP11-H1]	0.6 ratio to HIV pol reference peptide	0.65	–	24.9 % of HIV pol reference peptide	72.7 % of HIV pol reference peptide	82.5 % of HIV pol reference peptide

Source: patent publication US20250205324A1, “ANTIGENIC PEPTIDES FOR PREVENTION AND TREATMENT OF CANCER” (ENTEROME S.A., priority 2022, published 2025)
